Experimental data reported in publication PMC4614863, “New Insights into the RNA-Binding and E3 Ubiquitin Ligase Activities of Roquins”.
Substitutions are numbered along the chain they refer to.

Experiments:
[1] = molecular target: T1, RC3H2 stem-loop triple mutant (Homo sapiens, UniProt Q9HBD1 87-404, Q244A;Y247A;R248E); assay: analytical SEC; 47.3 kDa complex; ITC: 20 mM Tris-HCl pH 8.0, 150 mM NaCl, 1 mM TCEP, 25 C; 200-500 uM RNA injected into 15-30 uM protein, one-site model; settings: protein: recombinant; tags: His6-tag, removed by TEV where applicable; mixture of hairpin and self-duplex in solution
T1 sequence: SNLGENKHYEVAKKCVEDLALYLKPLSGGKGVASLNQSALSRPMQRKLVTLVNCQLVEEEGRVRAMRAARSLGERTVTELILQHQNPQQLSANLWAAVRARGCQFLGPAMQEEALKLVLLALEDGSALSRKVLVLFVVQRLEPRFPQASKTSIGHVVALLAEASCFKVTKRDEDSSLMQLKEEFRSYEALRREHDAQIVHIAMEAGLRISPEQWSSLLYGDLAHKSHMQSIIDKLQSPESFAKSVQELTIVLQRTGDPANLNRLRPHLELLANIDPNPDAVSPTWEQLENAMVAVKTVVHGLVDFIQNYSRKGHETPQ

[2] = molecular target: T2, RC3H2 quaternary mutant (triple mutant + phosphomimic) (Homo sapiens, UniProt Q9HBD1 87-404, Q244A;Y247A;R248E;S323E); assay: ITC; attributed to duplex form of Tnf23; ITC: 20 mM Tris-HCl pH 8.0, 150 mM NaCl, 1 mM TCEP, 25 C; 200-500 uM RNA injected into 15-30 uM protein, one-site model; settings: protein: recombinant; tags: His6-tag, removed by TEV where applicable; mixture of hairpin and self-duplex in solution
T2 sequence: T1 sequence with S237E

[3] = molecular target: T3, RC3H2 RNA-binding region (HEPN+ROQ), wild type (Homo sapiens, UniProt Q9HBD1 87-404); assay: ITC; ITC: 20 mM Tris-HCl pH 8.0, 150 mM NaCl, 1 mM TCEP, 25 C; 200-500 uM RNA injected into 15-30 uM protein, one-site model; settings: protein: recombinant, tags: His6-tag (pET28-MHL N-terminal TEV-cleavable, or pNIC-CH C-terminal uncleavable), removed by TEV where applicable
T3 sequence: T1 sequence with A158Q, A161Y, E162R

[4] = molecular target: T3, RC3H2 RNA-binding region (HEPN+ROQ), …; assay: crystal structure; duplex contacts HEPN and ROQ; same ASU also has stem-loop RNA; 2.5 A; ITC: 20 mM Tris-HCl pH 8.0, 150 mM NaCl, 1 mM TCEP, 25 C; 200-500 uM RNA injected into 15-30 uM protein, one-site model; settings: protein: recombinant; tags: His6-tag (pET28-MHL N-terminal TEV-cleavable, or pNIC-CH C-terminal uncleavable); removed by TEV where applicable; antiparallel self-duplex, 2 copies of strand; 10 Watson-Crick bp plus central UGU with U7-U9 wobble pairs
[5] = molecular target: T3, RC3H2 RNA-binding region (HEPN+ROQ), …; assay: analytical SEC; ITC: 20 mM Tris-HCl pH 8.0, 150 mM NaCl, 1 mM TCEP, 25 C; 200-500 uM RNA injected into 15-30 uM protein, one-site model; settings: protein: recombinant
[6] = molecular target: T1, RC3H2 stem-loop triple mutant; assay: ITC; ITC: 20 mM Tris-HCl pH 8.0, 150 mM NaCl, 1 mM TCEP, 25 C; 200-500 uM RNA injected into 15-30 uM protein, one-site model; settings: protein: recombinant; tags: His6-tag, removed by TEV where applicable; hairpin; mainly stem-loop in solution
[7] = tags: His6-tag (pET28-MHL N-terminal TEV-cleavable, or pNIC-CH C-terminal uncleavable), removed by TEV where applicable, hairpin and/or self-duplex

**Q.** Does ACAUGUUUUCUGUGAAAACGGAG (structured_RNA) [Tnf23 CDE RNA, 23-nt] bind [1]?
**A.** binds

**Q.** What about the Kd [2] of the same binder?
**A.** 590 nM

**Q.** And the Kd ([3]; mixture of hairpin and self-duplex in solution)?
**A.** 144 ± 50 nM

B1: Ier3 CDE RNA duplex (crystal) (dsRNA)
RNA 1: AUGUUCUGUGAACAC
RNA 2: AUGUUCUGUGAACAC
**Q.** Does B1 bind [4]?
**A.** binds

**Q.** Does AUAACUUCUGUGAAGUUGC (structured_RNA) [Roquin CDE RNA, 19-nt] bind [5, 7]?
**A.** binds

**Q.** Does UUAAUAACUUCUGUGAAGUUGUUUAC (structured_RNA) [Roquin2 CDE RNA (called 27-nt; 26 nt printed)] bind [5, 7]?
**A.** binds

**Q.** AUGUUCUGUGAACAC (structured_RNA) [Ier3 CDE RNA, 15-nt] was tested. Which Kd ([3]; hairpin, mainly stem-loop in solution) did it give?
**A.** 356 ± 86 nM

**Q.** Does AUGUUCUGUGAACAC (structured_RNA) [Ier3 CDE RNA, 15-nt] bind [6]?
**A.** no binding

B2: dsICOS (called 24-bp; 23 nt printed) (dsRNA)
RNA 1: UCUUCAGUCUAGACAGUUCGCUU
RNA 2: AAGCGAACUGUCUAGACUGAAGA
**Q.** Does B2 bind ([5]; tags: His6-tag (pET28-MHL N-terminal TEV-cleavable, or pNIC-CH C-terminal uncleavable; removed by TEV where applicable; ends not further stated))?
**A.** binds
